T1: IL-18 receptor (IL-18Rα/IL-18Rβ) on cells (HEK-Blue IL18R reporter cells, NK-92, KG-1) (human) (UniProt Q13478)
T1 sequence (looked up) 1: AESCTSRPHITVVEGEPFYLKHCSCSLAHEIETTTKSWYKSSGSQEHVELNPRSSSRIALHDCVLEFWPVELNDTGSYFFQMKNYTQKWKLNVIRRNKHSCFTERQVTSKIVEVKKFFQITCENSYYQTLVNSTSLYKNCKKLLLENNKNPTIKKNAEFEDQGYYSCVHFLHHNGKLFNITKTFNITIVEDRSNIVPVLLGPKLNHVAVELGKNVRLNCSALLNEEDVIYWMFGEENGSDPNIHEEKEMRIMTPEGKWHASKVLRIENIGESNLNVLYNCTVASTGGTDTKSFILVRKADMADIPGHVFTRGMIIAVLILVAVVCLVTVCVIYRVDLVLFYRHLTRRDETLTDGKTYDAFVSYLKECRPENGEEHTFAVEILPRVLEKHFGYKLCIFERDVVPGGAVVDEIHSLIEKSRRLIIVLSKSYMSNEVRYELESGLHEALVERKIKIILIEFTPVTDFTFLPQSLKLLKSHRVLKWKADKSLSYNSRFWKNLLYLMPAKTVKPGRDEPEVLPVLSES
T1 sequence (looked up) 2: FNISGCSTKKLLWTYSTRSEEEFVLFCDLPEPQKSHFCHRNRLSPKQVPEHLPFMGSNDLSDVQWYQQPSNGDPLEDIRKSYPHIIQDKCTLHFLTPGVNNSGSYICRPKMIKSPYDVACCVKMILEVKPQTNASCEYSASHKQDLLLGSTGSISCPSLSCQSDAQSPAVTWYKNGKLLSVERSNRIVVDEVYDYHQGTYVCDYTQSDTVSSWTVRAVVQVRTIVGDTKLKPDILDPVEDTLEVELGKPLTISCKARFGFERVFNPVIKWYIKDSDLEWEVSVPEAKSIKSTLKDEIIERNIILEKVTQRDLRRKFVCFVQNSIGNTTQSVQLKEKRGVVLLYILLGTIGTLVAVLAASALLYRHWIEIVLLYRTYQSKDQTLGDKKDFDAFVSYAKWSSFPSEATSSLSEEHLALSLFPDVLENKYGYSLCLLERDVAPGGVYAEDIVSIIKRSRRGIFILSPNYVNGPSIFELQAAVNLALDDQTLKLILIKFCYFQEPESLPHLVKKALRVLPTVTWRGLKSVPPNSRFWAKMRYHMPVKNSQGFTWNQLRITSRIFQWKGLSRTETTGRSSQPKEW

T2: human IL-18BP-His (human), O95998
T2 chain: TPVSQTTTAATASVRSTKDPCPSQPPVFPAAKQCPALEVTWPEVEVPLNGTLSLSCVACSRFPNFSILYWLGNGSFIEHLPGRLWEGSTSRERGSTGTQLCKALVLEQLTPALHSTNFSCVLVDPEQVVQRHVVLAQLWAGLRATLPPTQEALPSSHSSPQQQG


Key:
[1] = target: T1, IL-18 receptor (IL-18Rα/IL-18Rβ) on cells (HEK-Blue IL18R reporter cells, NK-92, KG-1) (human); assay: cell-based or functional assay
[2] = target: T2, human IL-18BP-His (human), O95998; assay: AlphaLISA of free IL-18BP; conditions: remark: other sources report otherwise

EC50, IFNγ secretion, NK92 cells [1] | Kd [2] | Binder
0.064 nM |  | Composition F (Trastuzumab/Herceptin conjugated to IL-18 polypeptide of SEQ ID NO: 60) (protein, part only; not given: trastuzumab heavy and light chains, part only, chemical linker to the antibody; site not stated) YFGKLKSKLSVIRNLNDQVLFIDQGNRPLFEDMTDSDQRDNAPRTIFIISMYADSQPRGMAVTISVKCEKISTLSCENKIISFKEMNPPDNIKDTKSDIIFFQRSVPGHDNKMQFESSSYEGYFLACEKERDLFKLILKKEDELGDRSIMFTVQNED
 | 969 nM | IL-18 polypeptide of SEQ ID NO: 35 (Y01G, F02A, E06K, M51G, K53A, D54A, S55A, T63A), Q14116 37-193 (ligand) GAGKLKSKLSVIRNLNDQVLFIDQGNRPLFEDMTDSDCRDNAPRTIFIISGYAAAQPRGMAVAISVKCEKISTLSCENKIISFKEMNPPDNIKDTKSDIIFFQRSVPGHDNKMQFESSSYEGYFLACEKERDLFKLILKKEDELGDRSIMFTVQNED
